Measured values published in the nanobody polyreactivity screen of Harvey et al. (2022).

Assay: yeast display, Sf9 membrane polyspecificity reagent, FACS + sequencing; frameworks hold sequencing errors
In short: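 Genes from sorted yeast were amplified by colony PCR, read by MiSeq 2 × 250 sequencing and filtered on CDR length. These cells carried a synthetic nanobody library in Saccharomyces cerevisiae BJ5465 and were sorted by FACS into low and high (top ~1%) gates on anti-HA and streptavidin fluorescence. Polyreactivity is labelled according to the gate of origin.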
In the case of “QVQLVESGGGLVQAGGSLRLSCAASGIIFSGNAMGWYRQAPGKERELVAAITLSGGSTYYADSVKGRFTISRDNAKNTVYLQMNSLKPEDTAVYYCNAVYDTNYSLRDIDTEYGSWGQGTQVTVSS”, the “polyreactivity (PSR sort gate)” value is reported as “low polyreactivity”.
For “QVQLVESGGGLVQAGGSLRLSCAASGIIFSGYVMGWYRQAPGKERELVAAISSGGSTYYADSVKGRFTISRDNAKNTVYLQMNSLKPEDTAVYYCAAAGYWTLGYGYWGQGTQVTVSS”, the “polyreactivity (PSR sort gate)” value was “low polyreactivity”.
For “QVQLVESGGGLVQAGGSLRLSCAASGIIFSTYAMGWYRQAPGKDRELVAAITSTGSTNYADSEKGRFTISRDNAKTTVSLQMNSLKPEDTAVYFCAARYAGPSPTDTGHDYWGQGTQVTVSS”, the “polyreactivity (PSR sort gate)” value was “low polyreactivity”.
For “QVQLVESGGGLVQAGGSLRLSCAASGIIFSTYAMGWYRQAPGKERELDATITSSGSNTYYADSVKGRFTISRDNAKNTVYLQMNSLKPEDTAVYYCNAVASHYDFGYWGQGTQVTVSS”, the “polyreactivity (PSR sort gate)” value was “high polyreactivity”.
With “QVQLVESGGGLVQAGGSLRLSCAASGIIFSYNFMGWYRQAPGKERELVAGISRSGGSTYYADSVKGRFTISRDNAKNTVYLQMNSLKPEDTAVYYCNTVERGQNRRPGDKARRYDWGQGTQVTVSS” the “polyreactivity (PSR sort gate)” value was “high polyreactivity”.
In the case of “QVQLVESGGGLVQAGGSLRLSCAASGIIFSYYAMGWYRQAPGKERELVAAITSGGGSTYYADSVKGRFTISRDNAKNTVYLQMNSLKPEDTAVYYCAADYNRELGRKFEYWGQGSQVTVSS”, the “polyreactivity (PSR sort gate)” value is reported as “high polyreactivity”.
In the case of “QVQLVESGGGLVQAGGSLRLSCAASGIIFTFNAMGWYRQAPGKERELVASISITGDTYYADSVKGRFTISRDNAKNTVYLQMNSLKPEDTAVYYCAAEYYFYSRHWYISYDYWGQGTQVTVSS”, the “polyreactivity (PSR sort gate)” value is reported as “low polyreactivity”.
With “QVQLVESGGGLVQAGGSLRLSCAASGIIFTFYTMGWYRQAPGKERELVAAITWSGGSTNYADSVKGRFTISRDNAKNTVYLQMNSLKPEDTAVYYCAAQGYPQSPPWEDYWGQGTQVTVSS” the “polyreactivity (PSR sort gate)” value was “low polyreactivity”.
For “QVQLVESGGGLVQAGGSLRLSCAASGIIFTGNAMGWYRQAPGKERELVAAITSGDTTNYADSVKGRFTISRDNAKNTVYLQKNSLKPEDTAVYYCAKELQVRQAGDYWGQGTQVTVSS”, the “polyreactivity (PSR sort gate)” value was “low polyreactivity”.
For “QVQLVESGGGLVQAGGSLRLSCAASGIIFTGYAMGWYRQAPGKERELVAAISRSGGGTYYADSVKGRFTISRDNAKNTVYLQMNSLKPEDTAVDYCNRLRIAASYWQAYDYWGQGTQLTVSS”, the “polyreactivity (PSR sort gate)” value was “high polyreactivity”.
For “QVQLVESGGGLVQAGGSLRLSCAASGIIFTKYVMGWYRQAPGKERELVAAINTDGGSTRYADSVKGRFTISRDNAKNTVYLQMNSLKPEDTAVYYCAAVSSRRPGYEYYYWGQGTQVTVSS”, the “polyreactivity (PSR sort gate)” value was “high polyreactivity”.
With “QVQLVESGGGLVQAGGSLRLSCAASGIIFTVYAMGWYRQPPGTERELVAAITSSGGRTYYADSVKGRFTISRDNAKNTVYLQMNSLKPDDTAVYYCAARRPGYVRKDDYWGQGTQVTVSS” the “polyreactivity (PSR sort gate)” value was “high polyreactivity”.
In the case of “QVQLVESGGGLVQAGGSLRLSCAASGIIFTYAMGWYRQAPGKERELVAAIDWRGGRTYYADSVKGRFTISRDNAKNTVYLQMNSLKPEDTAVYYCAVGVLYAGYFYRYRYYYWGQGTQVTVSS”, the “polyreactivity (PSR sort gate)” value is reported as “high polyreactivity”.
For “QVQLVESGGGLVQAGGSLRLSCAASGIIFTYSAMGWYRQAPGKERELVAAISRRGGTTYYADSVKGRFTISRDNAKNTVYLQMNSLKPEDTAVYYCAKKWGWFPVYYWGQGTQVTVSS”, the “polyreactivity (PSR sort gate)” value was “high polyreactivity”.
For “QVQLVESGGGLVQAGGSLRLSCAASGIIFTYYAMGWYRQAPGKERELVAAISVSGSSTYYADSVKGRFTISRDNAKNTVYLQMNSLKPEDTAVYYCAARYQWGTRGFGYWGQGTLVTVSS”, the “polyreactivity (PSR sort gate)” value was “high polyreactivity”.
With “QVQLVESGGGLVQAGGSLRLSCAASGIIFTYYAMGWYRQAPGKERELVARISSSGGRTYYADSVKGRFTISRDNAKNTVYLQMNSLKPEDTAVYYCNAVTTKSFHRYDYWGQGTQVTVSS” the “polyreactivity (PSR sort gate)” value was “high polyreactivity”.
In the case of “QVQLVESGGGLVQAGGSLRLSCAASGIIFVDYVMGWYRQAPGKERELVAAITYTGGSTYYADSVKGRFTISRDNAKNTVYLQMNSLKPEDTAVYYCAARRKHRFFPAYYYWGQGTQVTVSS”, the “polyreactivity (PSR sort gate)” value is reported as “high polyreactivity”.
For “QVQLVESGGGLVQAGGSLRLSCAASGIIFVENAMGWYRQAPGKERELVASGDSTYYADSVKGRFTISRDNAKNTVYLQMNSLKPEDTAVYYCAVDHYSARLLARYDYWGQGTQVTVSS”, the “polyreactivity (PSR sort gate)” value was “low polyreactivity”.
With “QVQLVESGGGLVQAGGSLRLSCAASGIIFVKYAMGWYRQAPGKERELVAAINWRTGRTYYADSVKGRFTISRDNAKNTVYLQMNSLKPEDTAVYYCAADVGIVIRLGRTEESGYYWGQGTQVTVSS” the “polyreactivity (PSR sort gate)” value was “low polyreactivity”.
For “QVQLVESGGGLVQAGGSLRLSCAASGIIFVKYVMGWYRQAPGKERELVAAISLGGGSTYYADSVKGRFTISRDNAKNTVYLQMNSLKPEDTAVYYCAAVRWTSRSRYDYWGQGTQVTVSS”, the “polyreactivity (PSR sort gate)” value was “high polyreactivity”.
For “QVQLVESGGGLVQAGGSLRLSCAASGIIFVKYVMGWYRQAPGKERELVAAITGTGRTNYADSVKGRFTISRDNAKNTVYLQMNSLKPEDTAVYYCNARQAGTRYKYGYYGRYYWGQGTQVSVSS”, the “polyreactivity (PSR sort gate)” value was “high polyreactivity”.
In the case of “QVQLVESGGGLVQAGGSLRLSCAASGIIFVRYVMGWYRQAPGKERELVAAINWSGGSTYYAYSVKGRFTISRDNANNTVYLQMNSLKPEDTAVYYCAAGSARDDDYWGQGTQVPVSS”, the “polyreactivity (PSR sort gate)” value is reported as “high polyreactivity”.
With “QVQLVESGGGLVQAGGSLRLSCAASGIIFVSYDMGWYRQAPGKERELVAAINRGGRTYYADSVKGRFTISRDNAKNTVYLQMNSLKPEDTAVYYCAAQFHFRPFSWTYDYWGQGTQVTVSS” the “polyreactivity (PSR sort gate)” value was “high polyreactivity”.
In the case of “QVQLVESGGGLVQAGGSLRLSCAASGIIFVTYAMGWNRQAPGKEREFVAGINWNGGSTYYADSVKGRFTISRDNAKNTVYLQMNSLKPEDTAVYYCNAENYRVRQRSSVKYDYWGQVTQVTVSS”, the “polyreactivity (PSR sort gate)” value is reported as “low polyreactivity”.
For “QVQLVESGGGLVQAGGSLRLSCAASGIIFVYNAMGWYRQAPGKERELVAVISFIGDSTYYADSVKGRFTISRDNAKNTVYLQMNSLKPEDTAVYYCAADYYLPYWFFVGYDYWGQGTQVTVSS”, the “polyreactivity (PSR sort gate)” value was “low polyreactivity”.
With “QVQLVESGGGLVQAGGSLRLSCAASGIIFWAYALGWYRQAPGKERELVAVISRGGSTNYADSVKGRFTISRDNAKNTVYLQMNSLKPEDTAVYYCAARYGWGQGTQVTVSS” the “polyreactivity (PSR sort gate)” value was “high polyreactivity”.
With “QVQLVESGGGLVQAGGSLRLSCAASGIIFWAYAMGWYRQAPGKERELVAVISRGGSTNYADSVKGRFTISRDNAKNTVYLQMNSLKPEDTAVYYCAARYGWGQGTQVTVSS” the “polyreactivity (PSR sort gate)” value was “high polyreactivity”.
With “QVQLVESGGGLVQAGGSLRLSCAASGIIFWDNAMGWYRQAPGQDRELVASINYSGGSTYYADSVKGRFTISRDNAKNTVYLQMNSLKPEDTAVYDCAARTVTLDDWDYAYDYWGQGTQVTVSS” the “polyreactivity (PSR sort gate)” value was “low polyreactivity”.
For “QVQLVESGGGLVQAGGSLRLSCAASGIIFWRYAMGWYRQAPGKERELVAAISSSGSTYYADSVKGRFTISRDNAKNTVYLQMNSLKPEDTAVYYCAAYSYPAGEYDYWGQGTQVTVSS”, the “polyreactivity (PSR sort gate)” value was “low polyreactivity”.
In the case of “QVQLVESGGGLVQAGGSLRLSCAASGIIFWRYAMGWYRQAPGKERELVAGITSRGGSTYYADSVKGRFTISRDNAKNTVYLQMNSLKPEDTAVYYCNADWYGQLWWGVDYWGQGTQVTVSS”, the “polyreactivity (PSR sort gate)” value is reported as “high polyreactivity”.
